Results reported in patent US20050181995A1 (NEC SOFT, published 2005).
Substitutions are numbered along the chain they refer to.

Legend:
KDR-IgG [1] = target: T1, KDR-IgG (UniProt P35968 20-764); assay: SPR (BIAcore 3000), KDR-IgG immobilised on CM5 chip
T1 construct: Immobilised on CM5 chip by amine coupling; also called KDR-lgG; VEGF receptor 2; not shown: IgG part of the fusion

KDR-IgG [2] = target: T1, KDR-IgG; assay: SPR (BIAcore 3000), KDR-IgG immobilised on CM5 chip; kdiss/kass
Flt-1-IgG = target: T2, Flt-1-IgG (UniProt P17948 27-687); assay: SPR (BIAcore 3000), receptor-IgG immobilised on CM5 chip
T2 construct: Immobilised on CM5 chip by amine coupling; also called Flt-1-lgG; Flt-1-lg; not shown: IgG part of the fusion

[3] = target: T3, Flt-4 (VEGF receptor type 3) (UniProt P35916 25-776); assay: SPR (BIAcore 3000), receptor immobilised on CM5 chip
T3 construct: Immobilised on CM5 chip; printed without an IgG suffix; also called VEGF receptor 3
T3 sequence: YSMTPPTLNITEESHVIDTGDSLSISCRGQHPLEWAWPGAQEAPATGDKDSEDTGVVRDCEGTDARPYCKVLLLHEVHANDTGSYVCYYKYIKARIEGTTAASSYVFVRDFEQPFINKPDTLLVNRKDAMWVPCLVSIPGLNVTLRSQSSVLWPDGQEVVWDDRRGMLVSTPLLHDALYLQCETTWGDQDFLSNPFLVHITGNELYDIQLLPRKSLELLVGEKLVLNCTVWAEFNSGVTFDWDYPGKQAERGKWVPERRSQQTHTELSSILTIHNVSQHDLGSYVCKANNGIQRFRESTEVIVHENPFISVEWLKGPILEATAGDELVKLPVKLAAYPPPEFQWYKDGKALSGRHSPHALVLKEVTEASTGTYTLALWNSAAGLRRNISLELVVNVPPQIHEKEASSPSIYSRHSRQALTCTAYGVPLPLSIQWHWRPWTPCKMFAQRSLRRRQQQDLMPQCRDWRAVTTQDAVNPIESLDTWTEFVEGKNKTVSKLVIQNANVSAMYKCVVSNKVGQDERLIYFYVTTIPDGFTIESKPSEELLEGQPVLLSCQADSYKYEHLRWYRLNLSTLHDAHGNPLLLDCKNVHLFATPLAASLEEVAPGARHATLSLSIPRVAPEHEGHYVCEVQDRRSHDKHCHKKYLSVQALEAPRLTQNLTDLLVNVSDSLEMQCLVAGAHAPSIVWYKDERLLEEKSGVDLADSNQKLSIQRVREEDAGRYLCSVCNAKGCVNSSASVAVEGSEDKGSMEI

T1 sequence (P35968 20-764 limits assumed): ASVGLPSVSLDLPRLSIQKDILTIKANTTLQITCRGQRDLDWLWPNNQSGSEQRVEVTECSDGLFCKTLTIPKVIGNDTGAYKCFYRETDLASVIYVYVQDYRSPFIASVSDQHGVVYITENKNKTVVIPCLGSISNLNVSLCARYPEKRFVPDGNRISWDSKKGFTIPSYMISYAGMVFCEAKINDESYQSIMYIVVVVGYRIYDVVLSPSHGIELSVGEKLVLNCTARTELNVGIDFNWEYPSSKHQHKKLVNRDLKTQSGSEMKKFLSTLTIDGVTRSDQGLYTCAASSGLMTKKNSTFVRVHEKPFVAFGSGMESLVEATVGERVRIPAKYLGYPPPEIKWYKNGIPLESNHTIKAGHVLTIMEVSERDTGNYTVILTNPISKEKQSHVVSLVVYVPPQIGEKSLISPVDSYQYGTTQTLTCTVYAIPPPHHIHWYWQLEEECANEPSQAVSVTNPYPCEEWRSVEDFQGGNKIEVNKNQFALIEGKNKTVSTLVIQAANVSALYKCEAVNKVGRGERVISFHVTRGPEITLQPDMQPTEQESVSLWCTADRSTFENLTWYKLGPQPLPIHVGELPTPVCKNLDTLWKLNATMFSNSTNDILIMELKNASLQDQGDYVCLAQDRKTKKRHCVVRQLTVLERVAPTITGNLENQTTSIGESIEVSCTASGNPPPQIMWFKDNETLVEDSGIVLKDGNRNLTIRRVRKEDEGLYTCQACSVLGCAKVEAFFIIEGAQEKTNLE
T2 sequence (P17948 other isoform, or with tags, fused parts or gaps limits assumed): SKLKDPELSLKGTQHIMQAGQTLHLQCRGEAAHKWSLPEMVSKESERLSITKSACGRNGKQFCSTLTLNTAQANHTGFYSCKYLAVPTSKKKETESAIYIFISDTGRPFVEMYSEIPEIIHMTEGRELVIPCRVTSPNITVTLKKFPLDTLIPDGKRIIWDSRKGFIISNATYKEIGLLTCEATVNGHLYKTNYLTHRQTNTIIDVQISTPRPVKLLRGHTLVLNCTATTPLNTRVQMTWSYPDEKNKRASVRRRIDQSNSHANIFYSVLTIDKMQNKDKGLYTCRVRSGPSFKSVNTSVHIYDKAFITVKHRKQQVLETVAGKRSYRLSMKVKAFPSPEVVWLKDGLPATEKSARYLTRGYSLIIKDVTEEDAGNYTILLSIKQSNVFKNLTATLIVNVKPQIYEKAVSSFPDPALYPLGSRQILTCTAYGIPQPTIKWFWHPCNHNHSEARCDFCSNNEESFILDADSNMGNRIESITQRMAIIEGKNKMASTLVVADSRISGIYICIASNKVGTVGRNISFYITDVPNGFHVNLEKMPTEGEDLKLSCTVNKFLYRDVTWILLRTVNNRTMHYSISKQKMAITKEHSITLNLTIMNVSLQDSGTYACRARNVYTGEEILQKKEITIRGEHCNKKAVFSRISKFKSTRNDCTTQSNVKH

B1: VR-1 (VEGF-like protein purified from the venom of Daboia russelli russelli) (ligand)
chain: EVRPFLDVYQRSACQTRETLVSILQEHPDEISDIFRPSCVAVLRCSGCCTDESMKCTPVGKHTADIQIMRMNPRTHSSKMEVMKFMEHTACECRPRWKQGEPEGPKEPR
modifications: pyrrolidone ring at N-terminus (opened with methanol-hydrochloric acid for sequencing)
notes: also called VR-1 protein
B1 showed a koff (KDR-IgG [1]) of 1.29e-05 s⁻¹, a kon (KDR-IgG [1]) of 39000 M⁻¹ s⁻¹ and a Kd (KDR-IgG [2]) of 0.332 nM. B1: no binding (tested: 3, 10 and 30 nM) (Flt-1-IgG).

B2: vammin (VEGF-like protein purified from the venom of Vipera ammodytes ammodytes) (ligand)
chain: EVRPFLEVHERSACQARETLVPILQEYPDEISDIFRPSCVAVLRCSGCCTDESLKCTPVGKHTVDLQIMRVNPRTQSSKMEVMKFTEHTACECRPRRKQGEPDGPKEKPR
modifications: pyrrolidone ring at N-terminus (opened with methanol-hydrochloric acid for sequencing)
notes: also called vammin protein
Work on B2 yielded a koff (KDR-IgG [1]) of 4.6e-06 s⁻¹, a kon (KDR-IgG [1]) of 11200 M⁻¹ s⁻¹ and a Kd (KDR-IgG [2]) of 0.411 nM. B2: no binding (tested: 500 nM) [3]; no binding (tested: 3, 10 and 30 nM) (Flt-1-IgG).

B3: HF (hypotensive factor from the venom of Vipera aspis aspis) (ligand)
chain: B2 chain with P22S
notes: also called HF protein
With B3 the koff (KDR-IgG [1]) was 9.6e-06 s⁻¹, the kon (KDR-IgG [1]) was 28800 M⁻¹ s⁻¹ and the Kd (KDR-IgG [2]) was 0.334 nM. B3: no binding (tested: 3, 10 and 30 nM) (Flt-1-IgG).
